Source: article PMC9073318 (Plant Communications, 2022)

T1: TaPAPhy_b2 (Triticum aestivum, UniProt F6MIW5)
T1 sequence (F6MIW5 21-530): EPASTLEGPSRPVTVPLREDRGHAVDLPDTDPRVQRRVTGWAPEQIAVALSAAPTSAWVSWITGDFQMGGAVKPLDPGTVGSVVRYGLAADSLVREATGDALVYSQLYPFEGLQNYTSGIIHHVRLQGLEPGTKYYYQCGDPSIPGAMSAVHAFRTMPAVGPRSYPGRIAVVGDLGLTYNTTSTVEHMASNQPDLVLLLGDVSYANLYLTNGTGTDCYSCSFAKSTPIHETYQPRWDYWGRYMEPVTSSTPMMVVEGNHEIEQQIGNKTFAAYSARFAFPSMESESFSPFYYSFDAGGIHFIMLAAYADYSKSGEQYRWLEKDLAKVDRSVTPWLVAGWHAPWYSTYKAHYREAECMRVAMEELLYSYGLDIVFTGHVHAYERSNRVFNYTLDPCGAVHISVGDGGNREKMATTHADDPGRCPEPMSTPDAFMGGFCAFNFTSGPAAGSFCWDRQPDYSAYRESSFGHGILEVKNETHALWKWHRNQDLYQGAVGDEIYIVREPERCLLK

B1: TaPAPhy_b2 (Triticum aestivum) (protein)
chain: EPASTLEGPSRPVTVPLREDRGHAVDLPDTDPRVQRRVTGWAPEQIAVALSAAPTSAWVSWITGDFQMGGAVKPLDPGTVGSVVRYGLAADSLVREATGDALVYSQLYPFEGLQNYTSGIIHHVRLQGLEPGTKYYYQCGDPSIPGAMSAVHAFRTMPAVGPRSYPGRIAVVGDLGLTYNTTSTVEHMASNQPDLVLLLGDVSYANLYLTNGTGTDCYSCSFAKSTPIHETYQPRWDYWGRYMEPVTSSTPMMVVEGNHEIEQQIGNKTFAAYSARFAFPSMESESFSPFYYSFDAGGIHFIMLAAYADYSKSGEQYRWLEKDLAKVDRSVTPWLVAGWHAPWYSTYKAHYREAECMRVAMEELLYSYGLDIVFTGHVHAYERSNRVFNYTLDPCGAVHISVGDGGNREKMATTHADDPGRCPEPMSTPDAFMGGFCAFNFTSGPAAGSFCWDRQPDYSAYRESSFGHGILEVKNETHALWKWHRNQDLYQGAVGDEIYIVREPERCLLK
B2: TaPAPhy_b2 (Triticum aestivum; K368A) (protein)
chain: EPASTLEGPSRPVTVPLREDRGHAVDLPDTDPRVQRRVTGWAPEQIAVALSAAPTSAWVSWITGDFQMGGAVKPLDPGTVGSVVRYGLAADSLVREATGDALVYSQLYPFEGLQNYTSGIIHHVRLQGLEPGTKYYYQCGDPSIPGAMSAVHAFRTMPAVGPRSYPGRIAVVGDLGLTYNTTSTVEHMASNQPDLVLLLGDVSYANLYLTNGTGTDCYSCSFAKSTPIHETYQPRWDYWGRYMEPVTSSTPMMVVEGNHEIEQQIGNKTFAAYSARFAFPSMESESFSPFYYSFDAGGIHFIMLAAYADYSKSGEQYRWLEKDLAKVDRSVTPWLVAGWHAPWYSTYAAHYREAECMRVAMEELLYSYGLDIVFTGHVHAYERSNRVFNYTLDPCGAVHISVGDGGNREKMATTHADDPGRCPEPMSTPDAFMGGFCAFNFTSGPAAGSFCWDRQPDYSAYRESSFGHGILEVKNETHALWKWHRNQDLYQGAVGDEIYIVREPERCLLK
B3: TaPAPhy_b2 (Triticum aestivum; K430A) (protein)
chain: EPASTLEGPSRPVTVPLREDRGHAVDLPDTDPRVQRRVTGWAPEQIAVALSAAPTSAWVSWITGDFQMGGAVKPLDPGTVGSVVRYGLAADSLVREATGDALVYSQLYPFEGLQNYTSGIIHHVRLQGLEPGTKYYYQCGDPSIPGAMSAVHAFRTMPAVGPRSYPGRIAVVGDLGLTYNTTSTVEHMASNQPDLVLLLGDVSYANLYLTNGTGTDCYSCSFAKSTPIHETYQPRWDYWGRYMEPVTSSTPMMVVEGNHEIEQQIGNKTFAAYSARFAFPSMESESFSPFYYSFDAGGIHFIMLAAYADYSKSGEQYRWLEKDLAKVDRSVTPWLVAGWHAPWYSTYKAHYREAECMRVAMEELLYSYGLDIVFTGHVHAYERSNRVFNYTLDPCGAVHISVGDGGNREAMATTHADDPGRCPEPMSTPDAFMGGFCAFNFTSGPAAGSFCWDRQPDYSAYRESSFGHGILEVKNETHALWKWHRNQDLYQGAVGDEIYIVREPERCLLK

Assays:
[1] = target: T1, TaPAPhy_b2; assay: X-ray crystal structure of soaked crystal; format: binding; parameters: gene TRAES_3BF026700100CFD_c1; signal peptide (20 aa) and C-terminal 7-aa ER-retention signal removed; alpha-factor secretion signal, C-terminal 6xHis; Pichia pastoris KM71H (OCH1::G418R); 510 residues, Fe-Fe centre; glycosylated for assays, Endo F1 deglycosylated for crystals; conditions: 5 mM InsS6 soak, pH 5.5; deglycosylated enzyme; site adjacent to active centre (standby mode), phosphate at catalytic centre
[2] = target: T1, TaPAPhy_b2; parameters: gene TRAES_3BF026700100CFD_c1; conditions: deglycosylated enzyme; product-bound state 1.42 A; bound to both irons (second structure, substrate-bound state, 1.54 A: 6GIZ)
[3] = substrate: O=P(O)(O)O[C@H]1[C@H](OP(=O)(O)O)[C@@H](OP(=O)(O)O)[C@H](OP(=O)(O)O)[C@@H](OP(=O)(O)O)[C@H]1OP(=O)(O)O; assay: purified protein; conditions: 0.2 M acetate pH 5.5, glycosylated enzyme

| Molecule | X-ray crystal structure of soaked crystal [1] | X-ray crystal structure [2] | Km [3] [µM] | kcat [3] [s⁻¹] |
| --- | --- | --- | --- | --- |
| O=S(=O)(O)O[C@H]1[C@H](OS(=O)(=O)O)[C@@H](OS(=O)(=O)O)[C@H](OS(=O)(=O)O)[C@@H](OS(=O)(=O)O)[C@H]1OS(=O)(=O)O [InsS6, myo-inositol hexakissulfate] | it binds at a site immediately adjacent to the active center |  |  |  |
| O=P(O)(O)O [phosphate] |  | A phosphate ion is bound to the two metal ions |  |  |
| B1 |  |  | 76.4 ± 7.7 | 23.8 ± 0.9 |
| B2 |  |  | 214.6 ± 46.6 | 28.4 ± 3.0 |
| B3 |  |  | 307.6 ± 56.7 | 3.1 ± 0.3 |
